For 1 substance, EC50 (luciferase reporter in HEK293T cells transfected with plasmid FJ773212 / pGL4.33) results are on record in patent US20260001926A1.

The target of this experiment is fibroblast growth factor receptor (FGFR). As to the kind of experiment: cell-based or functional assay.

Turning to “Bovine wild-type FGF2 (SEQ ID NO: 1) (from UniProt P03969 11-155) (ligand)”, the EC50 (luciferase reporter in HEK293T cells transfected with plasmid FJ773212 / pGL4.33) was 0.2 ng/ml.
